The numbers were not newly measured in publication PMC5074778, which cites them from elsewhere.

The data set deals with IL-6 receptor (Homo sapiens) (UniProt P08887).
UniProt P08887, sequence (P08887 20-365): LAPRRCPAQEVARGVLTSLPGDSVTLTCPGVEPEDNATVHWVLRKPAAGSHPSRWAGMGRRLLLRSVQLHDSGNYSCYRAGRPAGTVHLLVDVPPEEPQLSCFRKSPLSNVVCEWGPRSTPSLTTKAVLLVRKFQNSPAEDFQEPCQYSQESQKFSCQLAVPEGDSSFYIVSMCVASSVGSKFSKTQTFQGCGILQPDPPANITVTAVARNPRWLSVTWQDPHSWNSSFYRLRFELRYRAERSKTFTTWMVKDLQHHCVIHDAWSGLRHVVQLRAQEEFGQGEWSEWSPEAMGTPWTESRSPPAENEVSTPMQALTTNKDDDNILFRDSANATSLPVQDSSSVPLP

Tocilizumab: the Kd is 2.5 nM.
